This note sets out measurements from paper PMC11831497.

Common to all, as to settings: glycan lost; control: CTSD WT
A short description of data set [1]: CTSD secretion from CRC cells.
Data set [2] in a line: fluorogenic Cathepsin D activity kit, cell lysate.
The nature of data set [3]: immunofluorescence co-localisation with EEA1, Rab7, LAMP1, SW480.
The next data set can be described thus: western blot. Background: In western blotting, separated proteins are transferred to a membrane and probed.
The nature of data set [4]: cycloheximide chase, western blot.
Data set [5] in a line: western blot at equal CTSD expression, SW480.

Consider Cathepsin D (CTSD): N263Q/N134Q, for which, in data set [1], the expression_or_secretion result was “increases”. Besides, in data set [2], the enzymatic_activity result is listed as “decreases”. In data set [3], the localisation_or_trafficking result was “abolishes”.
For Cathepsin D (CTSD): N263Q, the “other: ferroptosis protein levels (SLC7A11, GPX4)” value in the data set “western blot” is reported as “decreases”. In addition, the expression_or_secretion entry in data set [1] was “decreases”. Moreover, the degradation_or_half_life result in data set [4] was “decreases”. Further, the “other: cellular level of substrate ACADM” value in data set [5] was “increases”. The enzymatic_activity entry in data set [2] was “decreases”. The localisation_or_trafficking result in data set [3] is “abolishes”.
